Data: patent US20180320179A1, “LANOSTEROL 14-ALPHA DEMETHYLASE (CYP51) NUCLEIC ACID MOLECULES THAT CONTROL PATHOGENS” (Dow AgroSciences LLC, priority 2017, published 2018)

B1: MgCyp51-T1: dsRNA tile of Zymoseptoria tritici Cyp51, 232 bp, location 166-397 (nucleic acid, listed as Zymoseptoria tritici)
chain: GTATTCCACTGGGTGCCCTTCATCGGAAGCACCATCACATACGGCATCGACCCATACAAGTTCTTCTTCTCCTGTCGGGAAAAGTATGGAGATGTCTTTACATTCATCCTGCTGGGAAAGAAGACGACGGTGTGCTTGGGCACCAAGGGCAATGATTTTATTTTGAATGGAAAACTGAAGGACGTCAACGCGGAGGAGATATACAGCCCGCTGACCACTCCTGTCTTTGGCA
B2: MgCyp51-T7: dsRNA tile of Zymoseptoria tritici Cyp51, 111 bp, location 1490-1600 (nucleic acid, listed as Zymoseptoria tritici)
chain: CGACGATGGTTCGCGATTTCAAGTTTTACAATGTGGATGGCAGCGACAACGTGGTGGGTACGGATTACAGCAGTTTGTTCAGCCGGCCGCTGTCGCCGGCAGTAGTAAAGT
modifications: long dsRNA tile, purified, chemistry not given here
B3: MgCyp51-T4: dsRNA tile of Zymoseptoria tritici Cyp51, 178 bp, location 647-824 (nucleic acid, listed as Zymoseptoria tritici)
chain: AGGGCTTCGACTCGTCTTTCGCGGACCTCTACCACTACCTCGATATGGGATTCACACCGATCAACTTTATGCTTCCGTGGGCGCCCCTTCCCCAGAACCGACGCCGCGATTATGCGCAGAAGAAGATGTCCGAGACATACATGTCGATCATTCAGAAGAGACGAGAGTCCAAAACGGG
B4: MgCyp51-T9: dsRNA tile of Zymoseptoria tritici Cyp51, 172 bp, location 1-172 (nucleic acid, listed as Zymoseptoria tritici)
chain: ATGGGTCTCCTCCAGGAAGTCCTCGCGCAGTTCGACGCGCAATTCGGCCAGACCAGCCTCTGGAAACTTGTCGGACTTGGATTCCTCGCCTTCAGCACGCTCGCCATCCTCCTCAATGTCCTCTCACAACTTCTCTTCCGTGGCAAGTTGTCCGATCCGCCACTCGTATTCC
modifications: double-stranded RNA
B5: MgCyp51-T2: dsRNA tile of Zymoseptoria tritici Cyp51, 165 bp, location 48-212 (nucleic acid, listed as Zymoseptoria tritici)
chain: CCAGACCAGCCTCTGGAAACTTGTCGGACTTGGATTCCTCGCCTTCAGCACGCTCGCCATCCTCCTCAATGTCCTCTCACAACTTCTCTTCCGTGGCAAGTTGTCCGATCCGCCACTCGTATTCCACTGGGTGCCCTTCATCGGAAGCACCATCACATACGGCAT
B6: MgCyp51-T3: dsRNA tile of Zymoseptoria tritici Cyp51, 230 bp, location 450-679 (nucleic acid, listed as Zymoseptoria tritici)
chain: CGTCAAGTACGGCCTCACAACCTCTGCCCTCCAGTCCTACGTGACCTTGATCGCCGCCGAGACCCGCCAGTTCTTCGACCGCAACAACCCTCATAAGAAGTTCGCATCGACCAGCGGCACGATCGATCTCCCACCAGCCCTCGCCGAACTTACGATCTATACTGCCAGCCGATCATTGCAAGGAAAGGAAGTCCGCGAGGGCTTCGACTCGTCTTTCGCGGACCTCTACC
B7: MgCyp51-T10: dsRNA tile of Zymoseptoria tritici Cyp51, 172 bp, location 345-516 (nucleic acid, listed as Zymoseptoria tritici)
chain: GGACGTCAACGCGGAGGAGATATACAGCCCGCTGACCACTCCTGTCTTTGGCAAGGATGTGGTTTATGATTGTCCCAATTCGAAGCTCATGGAGCAGAAGAAGTTCGTCAAGTACGGCCTCACAACCTCTGCCCTCCAGTCCTACGTGACCTTGATCGCCGCCGAGACCCGC

Tested on: Zymoseptoria tritici (SEPTTR-184)
Assay: Cyp51 dsRNA tile (fragment) foliar application bioassay (Example 6)
Assay type: in vivo
Conditions: for ED50 (ppm) SEPTTR-184 1DP / ED80 (ppm) SEPTTR-184 1DP / Disease Control (%) SEPTTR-184 1DP: 1 day protectant; for ED50 (ppm) SEPTTR-184 1DP / ED80 (ppm) SEPTTR-184 1DP / ED50 (ppm) SEPTTR-184 3DC / ED80 (ppm) SEPTTR-184 3DC: calculated from disease control; for Disease Control (%) SEPTTR-184 1DP / Disease Control (%) SEPTTR-184 3DC: average of 2 trials; for ED50 (ppm) SEPTTR-184 3DC / ED80 (ppm) SEPTTR-184 3DC / Disease Control (%) SEPTTR-184 3DC: 3 days curative
Protocol: The 200 ppm concentration for each treatment was prepared by adding the calculated volume of the corresponding dsRNA solution in TE buffer. […] A non-target dsRNA control (YFP), a TE/phosphate buffer control, disease pressure control, and clean plant control were included.
These plants were inoculated with an aqueous spore suspension of Zymoseptoria tritici either prior to or after fungicidal treatments. After inoculation the plants were kept in 100% relative humidity to allow spores to germinate and infect the leaves. The plants were then transferred to a greenhouse set at 20° C. until disease developed.

Molecule | ED50 (ppm) SEPTTR-184 1DP [ppm] | ED80 (ppm) SEPTTR-184 1DP [ppm] | Disease Control (%) SEPTTR-184 1DP (rate 3.125 ppm) [%] | Disease Control (%) SEPTTR-184 1DP (rate 12.5 ppm) [%] | Disease Control (%) SEPTTR-184 1DP (rate 50 ppm) [%] | Disease Control (%) SEPTTR-184 1DP (rate 200 ppm) [%] | ED50 (ppm) SEPTTR-184 3DC [ppm] | ED80 (ppm) SEPTTR-184 3DC [ppm] | Disease Control (%) SEPTTR-184 3DC (rate 3.125 ppm) [%] | Disease Control (%) SEPTTR-184 3DC (rate 12.5 ppm) [%] | Disease Control (%) SEPTTR-184 3DC (rate 50 ppm) [%] | Disease Control (%) SEPTTR-184 3DC (rate 200 ppm) [%] | curative activity against SEPTTR (ranking) (curative test) | level of control among the fragments (ranking) (fragments compared with each other)
B1 | <3.125 | >200 | 65 | 68 | 70 | 77 | <3.125 | >200 | 71 | 78 | 68 | 70 |  | 
B2 | 3.125 | >200 | 50 | 64 | 66 | 70 | 5.331 | >200 | 46 | 63 | 66 | 72 |  | 
B3 | <3.125 | 200 | 53 | 65 | 61 | 80 | <3.125 | >200 | 59 | 52 | 67 | 75 |  | 
B4 | <3.125 | >200 | 53 | 53 | 57 | 76 | <3.125 | >200 | 52 | 46 | 65 | 72 |  | 
B5 | <3.125 | >200 | 53 | 67 | 70 | 75 | <3.125 | 125 | 76 | 72 | 76 | 84 | provided the best curative activity against SEPTTR | provided the best level of control
B6 | <3.125 | >200 | 64 | 72 | 69 | 74 | <3.125 | >200 | 73 | 73 | 72 | 76 |  | 
B7 | <3.125 | >200 | 58 | 64 | 73 | 75 | 32.692 | >200 | 31 | 43 | 56 | 58 |  | 
